Source: US20230374068A1, “COMPOSITIONS AND METHODS FOR TREATING A DISEASE” (RAMOT AT TEL AVIV UNIVERSITY LTD., priority 2021, published 2023)
Values belong to the molecule of their own block, whether it stands above or below them.

B2: GFP-RILP (mouse RILP in pEGFP-C1) (other, UniProt Q5ND29 1-369, looked up)
chain: MEPRRAAPRLPSQASSSVGAGSAAELVYHLAGALGTELQGLARRFGPDAAAGLVPLVVRALELLEKAAVGPAPDSLQVSAQQAEVELRRLREENQRLRQELGSGPQEERALLRQLKEVTDRQRDELRAHNRDLQRRSQETEALQEQLQRLLLINSELRHKLAAVQTQLRAAQDRERERQIAQDGSSQLAKEQSLEPDAATSDDPVDTQKQPGNLPEAVQCGFSREELKQILQERNELKANVFLLKEELAYFQRELLTDHRVPGLLLEAMKVAVKKQRRKIKAKMLGTPEEAESSEDEDGSWLLLSNDKEDVPLVPESRIQNFFGLWYRGETEAPEAETSNPASSSLQKGEETPQQPHLQPVNSPPAPNS
notes: Expressed in transfected RBL cells; tested in cell lysate; also called GFP-fused RILP; pEGFP-C1-RILP; not shown: EGFP of the pEGFP-C1 vector

What was measured:
[1] = target: T1, T7-RILP(L231A) (pEF-T7-RILP(L231A)) (mouse, UniProt Q5ND29 1-369); assay: cell-based or functional assay
T1 construct: RHD mutant; expressed in transfected RBL cells
T1 sequence (looked up): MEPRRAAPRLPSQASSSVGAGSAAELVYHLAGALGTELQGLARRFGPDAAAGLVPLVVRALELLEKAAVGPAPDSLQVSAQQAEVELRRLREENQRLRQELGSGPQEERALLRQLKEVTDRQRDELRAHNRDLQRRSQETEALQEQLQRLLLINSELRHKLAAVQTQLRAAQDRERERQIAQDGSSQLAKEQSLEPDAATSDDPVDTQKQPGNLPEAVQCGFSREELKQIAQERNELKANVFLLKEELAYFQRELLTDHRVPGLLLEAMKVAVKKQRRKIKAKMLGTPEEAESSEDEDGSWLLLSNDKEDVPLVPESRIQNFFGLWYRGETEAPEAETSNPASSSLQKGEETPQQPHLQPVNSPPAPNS

[2] = target: T7-RILP (pEF-T7-RILP) (mouse) (UniProt Q5ND29); assay: cell-based or functional assay
[3] = target: T1, T7-RILP(L231A) (pEF-T7-RILP(L231A)); assay: GST-Rab12 pulldown from RBL cell lysates with GTPgammaS, anti-T7 immunoblot
Experimental: (§1) Bound proteins were eluted by sample buffer, and analyzed by SDS-PAGE and immunoblotting, using monoclonal antibodies directed against T7. Input=10% of total protein. A representative blot is shown. […] The results are the average pulldown±SEM derived from three independent experiments. *P[(T7-RILP/T7-RILP(L231A)]=0.0480, *P[T7-RILP/T7-RILP(E233A)]=0.0498.
(§2) Pulldown assays were performed as previously described 2. Briefly, 20 μg of GST fusion proteins or control GST immobilized on Glutathione Agarose beads were incubated for 18 hours at 4° C. with RBL cell lysates (500 μg) prepared in buffer C (50 mM Hepes pH 7.4, 150 mM NaCl, 1 mM MgCl₂, 1% TritonX100, 1 mM PMSF, protease inhibitor mixture, 2 mM Na₃VO₄) in the presence of 0.5 mM GTPγS. At the end of the incubation period, beads were sedimented by centrifugation at 5000×g for 5 minutes at 4° C., washed 4 times in buffer C with 0.2% TritonX100, and finally suspended in sample buffer, boiled for 7 minutes, and subjected to SDS-PAGE and immunoblotting. In pulldown experiments of endogenous phosphoRab12, cell lysates were prepared in buffer D (50 mM Hepes pH 7.4, 150 mM NaCl, 1 mM MgCl₂, 1% TritonX100, 1 mM PMSF, protease inhibitor mixture, 2 mM Na₃VO₄, 10 mM NaPPi and 80 mM β-glycerophosphate) and the pulldown assay was conducted in the absence of GTPγS. Beads were washed in buffer D with 0.2% TritonX100.

[4] = target: T2, T7-RILP(E233A) (pEF-T7-RILP(E233A)) (mouse, UniProt Q5ND29 1-369); assay: as above
T2 construct: RHD mutant; expressed in transfected RBL cells
T2 sequence (looked up): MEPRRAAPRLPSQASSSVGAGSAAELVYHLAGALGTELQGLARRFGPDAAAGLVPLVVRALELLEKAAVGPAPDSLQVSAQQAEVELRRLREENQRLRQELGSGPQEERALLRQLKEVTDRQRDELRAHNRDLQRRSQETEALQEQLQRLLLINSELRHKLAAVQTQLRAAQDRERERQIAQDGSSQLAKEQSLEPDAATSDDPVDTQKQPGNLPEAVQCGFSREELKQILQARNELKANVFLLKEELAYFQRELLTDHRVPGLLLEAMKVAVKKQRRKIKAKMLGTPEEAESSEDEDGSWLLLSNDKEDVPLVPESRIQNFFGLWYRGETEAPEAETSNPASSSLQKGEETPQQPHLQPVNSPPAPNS
Experimental: as §1, §2

[5] = target: T3, T7-RILP-L1 (pEF-T7-RILP-L1) (mouse, UniProt Q9JJC6 1-406); assay: co-immunoprecipitation from co-transfected RBL cell lysates, IP anti-GFP, blot anti-T7
T3 construct: The pEF-T7 plasmid was 'prepared as previously described'; also called T7-tagged RILP-L1; RILP-like 1
T3 sequence (looked up): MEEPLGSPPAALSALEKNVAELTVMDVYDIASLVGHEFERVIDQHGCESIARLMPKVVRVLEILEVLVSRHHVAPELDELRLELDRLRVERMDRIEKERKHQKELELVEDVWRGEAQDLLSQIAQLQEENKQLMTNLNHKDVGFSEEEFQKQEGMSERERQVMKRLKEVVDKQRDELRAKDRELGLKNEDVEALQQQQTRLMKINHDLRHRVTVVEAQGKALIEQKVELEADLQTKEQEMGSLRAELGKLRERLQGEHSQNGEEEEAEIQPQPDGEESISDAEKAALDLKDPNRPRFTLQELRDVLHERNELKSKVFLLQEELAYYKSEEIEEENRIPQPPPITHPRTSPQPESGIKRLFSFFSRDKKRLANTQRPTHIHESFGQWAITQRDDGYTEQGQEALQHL
Experimental: (§3) FIGS. 1A, 1B show the results of immunoprecipitations in which cell lysates derived from the rat mast cell line RBL-2H3, herein referred to as RBL cells, that were co-transfected with 17.5 μg of pEGFP plasmid encoding either RILP, RILP-L1 or RILP-L2 and 17.5 μg of pEF plasmid encoding either T7-RILP, T7-RILP-L1 or T7-RILP-L2, as indicated, were subjected to immunoprecipitation with rabbit polyclonal antibodies directed against GFP. FIGS. 1C, 1D show the results of immunoprecipitations in which the RBL cell lysates described above were subjected to immunoprecipitation with mouse monoclonal antibodies directed against the T7 epitope. Immune complexes were then analyzed by SDS-PAGE and immunoblotting with mouse monoclonal anti T7 antibodies, followed by reprobing with polyclonal anti GFP antibodies (FIGS. 1A, 1B), or with polyclonal anti GFP antibodies followed by reprobing with monoclonal anti T7 antibodies (FIGS. 1C, 1D), as indicated. Input=10% of total protein.
(§4) RBL cell lysates (500 μg) prepared in buffer A (50 mM Hepes pH 7.4, 250 mM NaCl, 1 mM MgCl₂, 1% Triton X-100, protease inhibitor mixture, 1 mM PMSF, 2 mM Na₃VO₄) were incubated overnight at 4° C. with either rabbit polyclonal anti-GFP antibodies (2 μg) or mouse monoclonal anti-T7 antibodies (1 μg). Protein A/G-Sepharose (50% v/v) was then added for 1.5 h at 4° C. Immune complexes were collected, washed three times with buffer B (50 mM Hepes pH 7.4, 150 mM NaCl, 1 mM MgCl₂, 0.2% Triton X-100, protease inhibitor mixture, 1 mM PMSF, 2 mM Na₃VO₄), and resuspended in 1× sample buffer, and boiled for 7 min. Proteins were resolved by SDS-PAGE and analyzed by immunoblotting with the desired antibodies.

[6] = target: T4, endogenous Rab12 of RBL cells (rat, UniProt P35284 49-291, limits assumed); assay: GST pulldown of endogenous Rab12 from RBL cell lysates, anti-Rab12 immunoblot
T4 construct: Total Rab12 pulled down from cell lysates (blot reprobed with anti-Rab12)
T4 sequence (looked up): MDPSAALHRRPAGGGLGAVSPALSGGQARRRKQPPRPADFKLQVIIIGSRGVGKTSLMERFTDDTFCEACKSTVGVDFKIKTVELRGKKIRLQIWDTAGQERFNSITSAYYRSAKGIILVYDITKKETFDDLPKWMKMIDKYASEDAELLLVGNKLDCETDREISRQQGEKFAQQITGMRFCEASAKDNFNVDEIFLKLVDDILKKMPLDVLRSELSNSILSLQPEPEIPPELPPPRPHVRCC
Experimental: Cells were then lysed and 500 μg of cell lysate were incubated overnight at 4° C. with either GST, GST-RILP, GST-RILP-L1 or GST-RILP-L2, immobilized on glutathione agarose beads, as indicated. At the end of the incubation period, beads were sedimented by centrifugation at 5000×g for 5 minutes at 4° C., washed four times with buffer containing 50 mM Hepes pH 7.4, 150 mM NaCl, 1 mM MgCl₂, 0.2% Triton X-100, protease inhibitor mixture, 1 mM PMSF, 2 mM Na₃VO₄, 10 mM NaPPi and 80 mM β-glycerophosphate and suspended in 1× sample buffer and boiled for 7 minutes. Proteins were resolved by SDS-PAGE and analyzed by immunoblotting with the anti-phosphoRab12 antibodies, followed by reprobing with anti Rab12 antibodies, as indicated. Representative blots are shown. Similar results were obtained in two separate experiments.
Next, it was assessed whether […] any impact on Rab12 interactions with its RILP family effectors. To this end, lysates derived from resting RBL cells or RBL cells that were triggered with either IgE/Ag or Ion/TPA, were subjected to pulldown assays by chimeric proteins consisting of GST-fused to either RILP, RILP-L1, or RILP-L2, or control GST. […] Therefore, under these conditions, the efficacy of Rab12-effector interactions was RILP-L1>RILP>>>RILP-L2.

[7] = target: T5, GFP-RILP-L1 (mouse RILP-like 1 in pEGFP-C1) (mouse, UniProt Q9JJC6 1-406); assay: co-immunoprecipitation from co-transfected RBL cell lysates, IP anti-GFP, blot anti-T7
T5 construct: Expressed in transfected RBL cells; tested in cell lysate; also called pEGFP-C1-RILP-L1; not shown: EGFP of the pEGFP-C1 vector
T5 sequence (looked up): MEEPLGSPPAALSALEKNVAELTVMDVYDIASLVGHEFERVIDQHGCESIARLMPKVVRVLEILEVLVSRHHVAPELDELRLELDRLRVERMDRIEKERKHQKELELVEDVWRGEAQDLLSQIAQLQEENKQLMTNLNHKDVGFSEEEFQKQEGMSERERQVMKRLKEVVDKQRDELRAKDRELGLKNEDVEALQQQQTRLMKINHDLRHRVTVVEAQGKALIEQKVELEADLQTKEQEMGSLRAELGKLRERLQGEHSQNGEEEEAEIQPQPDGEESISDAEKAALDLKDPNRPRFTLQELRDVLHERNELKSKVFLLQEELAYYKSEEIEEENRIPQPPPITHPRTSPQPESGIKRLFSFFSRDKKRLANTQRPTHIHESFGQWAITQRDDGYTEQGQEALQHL
Experimental: as §3, §4

[8] = target: B2; assay: as above
Experimental: as §3, §4

Molecule: GFP-Rab12 (pEGFP-C1-Rab12) (from UniProt P35283 49-291)
- incidence of cells with scattered secretory granules (NPY-mRFP), confocal microscopy of RBL cells [1]: 97%
- incidence of cells with perinuclear secretory granules (NPY-mRFP), confocal microscopy of RBL cells [2]: 99%

Molecule: B2
- binding result [5]: no binding

Results, then the molecule that gave them:

- binding result [3]: no binding
- binding result [4]: no binding
B1: GST-Rab12 (pGEX-4T-3-Rab12) (other, mouse, UniProt P35283 49-291, looked up)
chain: MDPSAALHRRPAGGSLGAVSPALSGGQARRRKQPPRPADFKLQVIIIGSRGVGKTSLMERFTDDTFCEACKSTVGVDFKIKTVELRGKKIRLQIWDTAGQERFNSITSAYYRSAKGIILVYDITKKETFDDLPKWMKMIDKYASEDAELLLVGNKLDCETDREISRQQGEKFAQQITGMRFCEASAKDNFNVDEIFLKLVDDILKKMPLDVLRNELSNSILSLQPEPEIPPELPPPRPHVRCC
notes: Immobilized on glutathione agarose beads; pulldown in the presence of 0.5 mM GTPgammaS; also called immobilized Rab12; not shown: glutathione S-transferase (GST) encoded by the pGEX-4T-3 vector

- fold increase in Rab12 pulldown, Ion/TPA-triggered against resting cells [6]: 4 fold
B3: GST-RILP-L2 (pGEX-4T-3-RILP-L2) (other, mouse, UniProt Q99LE1 1-197, looked up)
chain: MEDHPVREEEDGEEDEGALAKSPLQLTTDDVYDISYVVGRELMALGSDPRVTRLQFKIVRVMEMLETLVNEGSLAVEELRMERDNLKQEVEGLRKAGVSGAQVNLGPDKMVVDLTDPNRPRFTLQELREVLQERNKLKSQLLLVQEELQCYRSGLLPPRETPGGRREKDAVVAMGNGEKEERTIMKKLFSFRSGKHT
notes: Immobilized on glutathione agarose beads; not shown: glutathione S-transferase (GST) encoded by the pGEX-4T-3 vector

- binding result [7]: no binding
- binding result [8]: no binding
B4: T7-RILP-L2 (pEF-T7-RILP-L2) (other, mouse, UniProt Q99LE1 1-197, looked up, not shown: small tags and cut ends)
chain: MEDHPVREEEDGEEDEGALAKSPLQLTTDDVYDISYVVGRELMALGSDPRVTRLQFKIVRVMEMLETLVNEGSLAVEELRMERDNLKQEVEGLRKAGVSGAQVNLGPDKMVVDLTDPNRPRFTLQELREVLQERNKLKSQLLLVQEELQCYRSGLLPPRETPGGRREKDAVVAMGNGEKEERTIMKKLFSFRSGKHT
notes: The pEF-T7 plasmid was 'prepared as previously described'; also called T7-tagged RILP-L2; RILP-like 2
